Data on two molecules can be found in publication PMC5723433, “Identification and characterization of a novel zebrafish (Danio rerio) pentraxin–carbonic anhydrase” (PeerJ, 2017).

Series [1] has as its target zebrafish (Danio rerio) carbonic anhydrase VI-pentraxin (CA VI–PTX), recombinant (zebrafish (Danio rerio)). The experiment in a line: SEC + other: static and dynamic light scattering (LC-SLS-DLS); 50 ug protein injected on Superdex 200 5/150 in 50 mM NaH3PO4, 500 mM NaCl pH 8, 0.1 ml/min, 20 °C; MW from standard proteins (SEC) and from light-scattering intensity calibrated on monomeric BSA (SLS); Rh from DLS.

Series [2] deals with the molecule itself. The experiment in a line: not stated; unpublished data, preliminary result; protein in solution.

In general, stoichiometry N refers to the number of molecules, sites or subunits per partner or assembly.

On to “zebrafish (Danio rerio) carbonic anhydrase VI-pentraxin (CA VI–PTX), recombinant (enzyme)”, for which the stoichiometry N in series [1] amounted to 5.

B1: human carbonic anhydrase VI (CA VI) (enzyme, UniProt P23280-1 18-308, looked up)
chain: QHVSDWTYSEGALDEAHWPQHYPACGGQRQSPINLQRTKVRYNPSLKGLNMTGYETQAGEFPMVNNGHTVQISLPSTMRMTVADGTVYIAQQMHFHWGGASSEISGSEHTVDGIRHVIEIHIVHYNSKYKSYDIAQDAPDGLAVLAAFVEVKNYPENTYYSNFISHLANIKYPGQRTTLTGLDVQDMLPRNLQHYYTYHGSLTTPPCTENVHWFVLADFVKLSRTQVWKLENSLLDHRNKTIHNDYRRTQPLNHRVVESNFPNQEYTLGSEFQFYLHKIEEILDYLRRALN
notes: carbonic anhydrase VI, human; Only an unpublished preliminary result is told (A. Yrjänäinen, 2017); also called human CA VI; gustin
B1: the “stoichiometry N” value in series [2] worked out at 2.
